Patent publication US8574882B2, “Thermostable 1,5-anhydroglucitol dehydrogenase, and method for measurement of 1,5-anhydroglucitol by using the same” (Nippon Kayaku Kabushiki Kaisha, priority 2008, dated 2013)

B1: Ver. 0: recombinant parent strain (Pseudomonas sp. NK-85001)-derived 1,5-AG dehydrogenase, SEQ ID NO: 4, no thermostability (protein)
chain: MEFGGQPDIVIIGSGIGGASIAAGLSASGADILILEAGESLPDRPENRDPHAIFQRGFFRPKEFWYETDGTPFNPGNYYNVGGNSKFYGAVLVRYRREDFEELAHLEGVSPAWPFAYDELEPWYCKAEELFQVRGELGDDPTEPYHSKPYSYPAIRDESPIADLRARLKKAGLHPASLPLGVDIERWLAKAKTPWDAHPNSNDGKMDAETCPLALALKHPNVGLETSARVTKLETGPDGKTIVAVHYVKNGEALVLRPKLVILSAGAVQSAALLLRSGLANRSDQVGRNFMNHNASAVIGFDPRYRNDSVYQKTFGFNDYYLSDGAGGPPLGNVQLLGRVSGAILKSNMRQVPEWFLNRIAGHTIDFYAMSEDLPSPESRVSVDGDRIILHWVRSNWKAHLMLVDKLKSALRAAGFPVVLSRAFDRRTPSHQCGTVRIGDNPATAPLDPYCRAYDHPNLYVVDASFLPTSAAVNPALTIAAQALRVADHLNREVLA
modifications: Pseudomonas sp. NK-85001
B2: Ver. 3.2: thermostable 1,5-AG dehydrogenase, protein 17); net vs SEQ ID NO: 4: A37T, P50Q, L164M, G362R (protein)
chain: MEFGGQPDIVIIGSGIGGASIAAGLSASGADILILETGESLPDRPENRDQHAIFQRGFFRPKEFWYETDGTPFNPGNYYNVGGNSKFYGAVLVRYRREDFEELAHLEGVSPAWPFAYDELEPWYCKAEELFQVRGELGDDPTEPYHSKPYSYPAIRDESPIADMRARLKKAGLHPASLPLGVDIERWLAKAKTPWDAHPNSNDGKMDAETCPLALALKHPNVGLETSARVTKLETGPDGKTIVAVHYVKNGEALVLRPKLVILSAGAVQSAALLLRSGLANRSDQVGRNFMNHNASAVIGFDPRYRNDSVYQKTFGFNDYYLSDGAGGPPLGNVQLLGRVSGAILKSNMRQVPEWFLNRIARHTIDFYAMSEDLPSPESRVSVDGDRIILHWVRSNWKAHLMLVDKLKSALRAAGFPVVLSRAFDRRTPSHQCGTVRIGDNPATAPLDPYCRAYDHPNLYVVDASFLPTSAAVNPALTIAAQALRVADHLNREVLA
modifications: Pseudomonas sp. NK-85001
B3: Ver. 7.1: thermostable 1,5-AG dehydrogenase, SEQ ID NO: 23; Ver. 7.0 plus G4A (protein)
chain: MEFAGQPDIVIIGTGIGGASIAAGLSASGADILILETGESLPDRPENRDQHAIFQRGFFRPKEFWYETDGTPFNPGNYYNVGGNSKFYGAVLMRYRREDFEELAHLEGVSPAWPFAYDELEPWYCKAEELFQVRGELGDDPTEPYHSKPYSYPAIRDESPIADMRARLKKAGLHPASLPLGVDIERWLAKAKTPWDAHPNSNDGKMDAETCPLALALKHPNVGLETSARVTKLEAGPDGKTIVAVHYVKNGEALVLRPKLVILSAGAVQSAALLLRSGLANRSDQVGRNFMNHNASAVIGFDPRYRNDSVYQKTFGFNDYYLSDGAGGPPLGNVQLLGRVSGAILKSYMRQVPEWFLNRIARHTIDFYAMSEDLPSPESRVSVDGDRIILHWVRSNWKAHLMLVDKLKSALRAAGFPVVLSRAFDRRTPSHQCGTVRIGDNPATAPLDPYCRAYDHPNLYVVDASFLPTSAAVNPALTIAAQALRVADHLNREVLA
modifications: Mutated 1,5-anhydroglucitol dehydrogenase gene
notes: Ver; 7.0 plus G4A
B4: Ver. 11.1: thermostable 1,5-AG dehydrogenase; SEQ ID NO: 1 having an arginine residue in place of proline at position 156 (protein)
chain: MEFAGQPDIVIIGTGIGGASIAAGLSASGADILILERGESLPDRPENRDQHAIFQRGFFRPKEFWYGTDGTPFNPGNYYYVGGNSKFYGAVLMRYRREDFEELAHLEGVSPAWPFAYDELEPWYCKAEELFQVRGELGDDPTEPYHSKPYSYPAIRDESPIADMRARLKKAGLHPASLPLGVDIERWLAKAKTPWDAHPNSDDGKMDAETCPLALALKHPNVGLETSARVTKLEAGPDGKTIVAVHYVKNGEALVLRPKLVILSAGAVQSAALLLRSGLANRSDQVGRNFMNHNASAVIGFDPRYRNDSVYQKTFGFNDYYLSDGAGGPPLGNVQLLGRVSGAILKSYMRQVPEWFLNRIARHTIDFYAMSEDLPSPESRVSVDGDRIILHWVRSNWKAHLMLVDKLKSALRAAGFPVVLSRAFDRRTPSHQCGTVRIGDNPATAPLDPYCRAYDHPNLYVVDASFLPTSAAANPALTIAAQALRVADHLNREVLA
modifications: Protein expressed by mutated 1,5-anhydroglucitol dehydrogenase gene
B5: Ver. 12.0: thermostable 1,5-AG dehydrogenase comprising the amino acid sequence represented by SEQ ID NO: 1 (protein)
chain: MEFAGQPDIVIIGTGIGGASIAAGLSASGADILILERGESLPDRPENRDQHAIFQRGFFRPKEFWYGTDGTPFNPGNYYYVGGNSKFYGAVLMRYRREDFEELAHLEGVSPAWPFAYDELEPWYCKAEELFQVRGELGDDPTEPYHSKPYSYPAIPDESPIADMRARLKKAGLHPASLPLGVDIERWLAKAKTPWDAHPNSDDGKMDAETCPLALALKHPNVGLETSARVTKLEAGPDGKTIVAVHYVKNGEALVLRPKLVILSAGAVQSAALLLRSGLANRSDQVGRNFMNHNASAVIGFDPRYRNDSVYQKTFGFNDYYLSDGAGGPPLGNVQLLGRVSGAILKSYMRQVPEWFLNRIARHTIDFYAMSEDLPSPESRVSVDGDRIILHWVRSNWKAHLMLVDKLKSALRAAGFPVVLSRAFDRRTPSHQCGTVRIGDNPATAPLDPYCRAYDHPNLYVVDASFLPTSAAANPALTIAAQALRVADHLNREVLA
modifications: Protein expressed by mutated 1,5-anhydroglucitol dehydrogenase gene
B6: Ver. 11.0: thermostable 1,5-AG dehydrogenase; SEQ ID NO: 1 having arginine at position 156 and valine at position 473 (protein)
chain: MEFAGQPDIVIIGTGIGGASIAAGLSASGADILILERGESLPDRPENRDQHAIFQRGFFRPKEFWYGTDGTPFNPGNYYYVGGNSKFYGAVLMRYRREDFEELAHLEGVSPAWPFAYDELEPWYCKAEELFQVRGELGDDPTEPYHSKPYSYPAIRDESPIADMRARLKKAGLHPASLPLGVDIERWLAKAKTPWDAHPNSDDGKMDAETCPLALALKHPNVGLETSARVTKLEAGPDGKTIVAVHYVKNGEALVLRPKLVILSAGAVQSAALLLRSGLANRSDQVGRNFMNHNASAVIGFDPRYRNDSVYQKTFGFNDYYLSDGAGGPPLGNVQLLGRVSGAILKSYMRQVPEWFLNRIARHTIDFYAMSEDLPSPESRVSVDGDRIILHWVRSNWKAHLMLVDKLKSALRAAGFPVVLSRAFDRRTPSHQCGTVRIGDNPATAPLDPYCRAYDHPNLYVVDASFLPTSAAVNPALTIAAQALRVADHLNREVLA
modifications: Protein expressed by mutated 1,5-anhydroglucitol dehydrogenase gene

Key:
[1] = 1,5-AG dehydrogenase activity determination of crude enzyme solution (L-sorbose, DCIP, 1-m-PMS, decrease in absorbance at 600 nm); type: biochemical; conditions: L-sorbose as substrate, 37° C.; for Specific activity: crude enzyme solution
Procedure: The E. coli JM109 strains transformed with the pTrc-PS15DH vectors confirmed in the paragraph (I) to have the insert fragment were inoculated to 3 mL of an LB medium containing 100 μg/mL ampicillin and cultured at 28° C. for 14 hours. Of this culture solution, a 0.2 mL aliquot was inoculated to 10 mL of an LB medium (containing 100 μg/mL ampicillin). Approximately 3 hours later, the rise of OD600 of the culture solution to 0.4 to 0.7 was confirmed, and 1,5-AG dehydrogenase expression in E. coli was then induced by the addition of 0.1 M IPTG (final concentration: 0.1 mM) to the medium. This culture solution was further cultured overnight at 28° C. and centrifuged at 10000×g for 5 minutes to precipitate cells. The supernatant was removed, and the pellet was then washed twice with a 0.85% aqueous NaCl solution. Cells were precipitated by centrifugation. Then, the microbial cells were suspended in 1 mL of a 50 mM sodium phosphate buffer, pH 7.5. Triton X-100 was added thereto at a concentration of 0.25%, and the microbial cells were disrupted using a bead impact-type cell disrupter MINI-BEAD BEATER (30 seconds×4, manufactured by Central Scientific Commerce, Inc.) while cooled in ice. After centrifugation at 20000×g for 10 minutes, the supernatant was examined as a crude enzyme solution for its 1,5-AG dehydrogenase activity. The composition of the reaction solution is as described below. Since the 1,5-AG dehydrogenase also reacts with L-sorbose as its substrate, L-sorbose was used for convenience instead of 1,5-AG in the enzymatic activity determination.
Composition of Reaction Solution:
The components other than the crude enzyme solution are mixed and kept at 37° C. for 10 minutes. Then, the crude enzyme solution is added to the reaction solution to initiate reaction. Decrease in absorbance at 600 nm for 1 minute with the temperature kept at 37° C. is determined.
The enzymatic activity can be determined according to the following equation: Enzymatic activity (U/mL)=(Δ600/min×0.6 (mL)×dilution ratio of crude enzyme solution)/(16.3×0.01 (mL)).
(§1) The E. coli JM109 containing the gene encoding each thermostable 1,5-AG dehydrogenase obtained in the paragraphs to [4] of EXAMPLE 2 was transplanted to 10 mL of an LB liquid medium containing 50 μg/mL ampicillin and 0.1 mM IPTG and shake-cultured at 30° C. for 16 hours. 10 mL of the shake-culture solution was centrifuged at 10000 rpm for 5 minutes. The culture supernatant was removed, and the pellet was then washed twice with a 0.85% aqueous NaCl solution. These microbial cells were suspended in 1 mL of a 50 mM sodium phosphate buffer (pH 7.5) containing 0.25% Triton X-100. The microbial cells were disrupted using a bead impact-type cell disrupter MINI-BEAD BEATER (30 seconds×4, manufactured by Central Scientific Commerce, Inc.) while cooled in ice. After centrifugation at 15000 rpm for 10 minutes, the supernatant was used as a crude enzyme solution. When the crude enzyme solution was heat-treated, the treatment was performed for 10 minutes in a water bath of 45° C., 50° C., 55° C. or 60° C.
(§2) The enzymatic activity of the 1,5-AG dehydrogenase was calculated by measurement by the same approach as that described in the paragraph (J) of EXAMPLE 1.
(§3) A specific activity that represents the enzymatic activity of the 1,5-AG dehydrogenase per mg of the crude enzyme solution was calculated according to the following equation: Specific activity (U/mg)=enzymatic activity (U/mL)/protein concentration of crude enzyme solution (mg/mL). Moreover, the rate of residual activity was calculated according to the following equation: Rate of residual activity (%)=(specific activity of crude enzyme solution after heat treatment/specific activity of crude enzyme solution before heat treatment)×100.
The 1,5-AG dehydrogenase activity was determined based on the method described in EXAMPLE 1, and its specific activity was determined according to the equation described in EXAMPLE 3.

[2] = Stability of thermostable 1,5-AG dehydrogenase at heat treatment temperature (rate of residual activity); type: physicochemical; conditions: for Rate of residual activity after 10-minute treatment at 45° C. / Rate of residual activity after 10-minute treatment at 50° C. / Rate of residual activity after 10-minute treatment at 55° C. / Rate of residual activity after 10-minute treatment at 60° C.: crude enzyme solution, 10 minutes; for Rate of residual activity after 10-minute treatment at 45° C.: water bath 45° C.; for Rate of residual activity after 10-minute treatment at 50° C.: water bath 50° C.; for Rate of residual activity after 10-minute treatment at 55° C.: water bath 55° C.; for Rate of residual activity after 10-minute treatment at 60° C.: water bath 60° C.
Procedure: as §1, §2, §3

Row | Molecule | Enzymatic activity of the crude enzyme solution ([1]; E. coli JM109 / pTrc-PS15DH) [U/mL] | Specific activity [1] [U/mg] | Rate of residual activity after 10-minute treatment at 45° C. [2] [%] | Thermostability compared with the version(s) it was prepared from ([2]; Ver. 4.0 vs Ver. 3.2, Ver. 3.2 vs Ver. 3.0 and Ver. 3.1) | Rate of residual activity after 10-minute treatment at 50° C. [2] [%] | Rate of residual activity after 10-minute treatment at 55° C. [2] [%] | Rate of residual activity after 10-minute treatment at 60° C. [2] [%]
1 | B1 | 4.4 | 1.2 | 3.0 |  |  |  | 
2 | B2 |  | 2.0 | 68.0 | improved thermostability | 14.0 |  | 
3 | B3 |  | 2.8 | 89.0 |  | 61.0 | 10.0 | 
4 | B4 |  | 0.8 |  |  |  |  | 73
5 | B5 |  | 1.2 |  |  |  |  | 76
6 | B6 |  | 3.4 | 97.0 |  | 97.0 | 81.0 | 
